Data from patent US20240360242A1 (KISOJI BIOTECHNOLOGY, published 2024).

T1: recombinant human TROP2 extracellular domain (aa 1-274) comprising His tag (human, UniProt P09758 27-274)
T1 construct: Used here for all assays on recombinant human TROP2 (ELISA, immunoblot, SPR, crystal), although only some of them name the catalogue number; also called human recombinant TROP2; recombinant human TROP2 protein; not shown: His tag
T1 sequence: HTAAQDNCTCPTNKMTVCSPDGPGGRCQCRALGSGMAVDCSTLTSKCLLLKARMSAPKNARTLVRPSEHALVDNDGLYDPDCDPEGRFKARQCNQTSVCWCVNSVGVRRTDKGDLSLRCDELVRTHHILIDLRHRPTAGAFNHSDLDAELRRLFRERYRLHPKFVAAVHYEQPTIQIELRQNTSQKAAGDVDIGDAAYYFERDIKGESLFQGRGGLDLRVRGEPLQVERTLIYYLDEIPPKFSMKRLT

T2: recombinant human EpCAM (human, UniProt P16422 24-265)
T2 construct: also called rhEpCAM
T2 sequence (looked up): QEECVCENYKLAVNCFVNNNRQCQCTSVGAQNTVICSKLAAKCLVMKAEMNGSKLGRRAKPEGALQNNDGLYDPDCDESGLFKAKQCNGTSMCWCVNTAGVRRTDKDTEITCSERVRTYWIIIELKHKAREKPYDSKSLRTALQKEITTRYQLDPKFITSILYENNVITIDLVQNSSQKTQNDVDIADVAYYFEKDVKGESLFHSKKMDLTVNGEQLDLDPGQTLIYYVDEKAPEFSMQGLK

T3: recombinant human IGFBP-1 (human, UniProt P08833 26-259)
T3 construct: also called rhIGFB-1
T3 sequence (looked up): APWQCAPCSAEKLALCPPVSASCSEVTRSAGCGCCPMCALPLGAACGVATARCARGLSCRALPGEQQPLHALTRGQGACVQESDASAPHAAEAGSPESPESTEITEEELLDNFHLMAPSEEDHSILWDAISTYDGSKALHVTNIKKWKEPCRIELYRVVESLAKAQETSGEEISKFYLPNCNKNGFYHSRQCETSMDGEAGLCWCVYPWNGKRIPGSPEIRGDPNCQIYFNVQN

T4: HEK-TROP2 Δ27-44
T4 construct: also called TROP2 delta 27-44
T4 membrane protein on transfected HEK cells: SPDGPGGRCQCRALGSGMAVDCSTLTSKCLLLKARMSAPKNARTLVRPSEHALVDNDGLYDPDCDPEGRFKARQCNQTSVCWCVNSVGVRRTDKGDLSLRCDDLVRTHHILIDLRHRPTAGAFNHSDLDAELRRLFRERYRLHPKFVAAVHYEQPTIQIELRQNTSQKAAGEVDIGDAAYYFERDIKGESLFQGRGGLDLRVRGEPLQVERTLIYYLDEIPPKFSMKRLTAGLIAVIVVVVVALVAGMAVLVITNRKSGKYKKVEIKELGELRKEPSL

T5: HEK-TROP2 Δ27-36
T5 construct: also called TROP2 delta 27-36
T5 membrane protein on transfected HEK cells: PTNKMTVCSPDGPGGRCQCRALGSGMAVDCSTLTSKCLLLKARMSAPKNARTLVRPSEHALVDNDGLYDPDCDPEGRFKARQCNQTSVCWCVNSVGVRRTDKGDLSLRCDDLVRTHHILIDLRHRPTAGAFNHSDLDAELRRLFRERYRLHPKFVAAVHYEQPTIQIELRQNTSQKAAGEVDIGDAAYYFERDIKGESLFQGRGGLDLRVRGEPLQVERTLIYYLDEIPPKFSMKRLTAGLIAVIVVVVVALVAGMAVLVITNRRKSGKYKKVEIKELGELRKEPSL

T6: TROP2 delta 27-56 on HEK cells (human, UniProt P09758 1-323)
T6 construct: Human TROP2 with residues 27-56 deleted, transiently transfected into HEK cells; also called TROP2 with 27-56 regions truncated
T6 chain: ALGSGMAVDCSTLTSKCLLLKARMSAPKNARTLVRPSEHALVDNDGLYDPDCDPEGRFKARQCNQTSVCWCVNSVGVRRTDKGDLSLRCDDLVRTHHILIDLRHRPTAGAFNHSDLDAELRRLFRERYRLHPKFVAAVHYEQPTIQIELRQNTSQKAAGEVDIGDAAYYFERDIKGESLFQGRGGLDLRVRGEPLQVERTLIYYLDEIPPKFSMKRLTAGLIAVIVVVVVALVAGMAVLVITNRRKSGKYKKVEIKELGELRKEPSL


Experiments:
[1] = molecular target: T1, recombinant human TROP2 extracellular …; assay: ELISA, coated rh TROP2
Experimental: (§1) Human TROP2 recombinant proteins were coated on 96-well ELISA plates at the concentration of 1 μg/mL. Plates were covered with adhesive plate cover and stored at 4° C. overnight. The next day, plates were washed 3× with washing buffer (PBS with 0.1% Tween™ 20). Plates were blocked with 2% fat-free BSA in washing buffer for 1 hour at 37° C. During the incubation time, the TROP2 reference antibodies, as well as the humanized variants, were diluted in the blocking buffer to the indicated concentrations. […] After blocking, the blocking buffer was removed from the wells and 100 μL of anti-TROP2 sdAbs dilutions were transferred to the corresponding wells. Plates were covered with adhesive plates cover and incubated at 37° C. for 1 hour. During the primary antibody incubation, the secondary antibody (goat anti-human IgG, HRP conjugated) was diluted 1 in 5000 with the blocking buffer. Plates were washed 3× with blocking buffer, followed by secondary antibody incubation for another 1 hour at 37° C. After the secondary antibody incubation, plates were washed 3× with washing buffer and added with 100 μL of ELISA chemiluminescent substrate (Thermofisher). The luminescence signal was detected by SpectraMax i3x at […].

[2] = molecular target: T1, recombinant human TROP2 extracellular …; assay: ELISA, coated rh TROP2, normalized to KD005
[3] = molecular target: T1, recombinant human TROP2 extracellular …; assay: ELISA on coated recombinant human TROP2, 0.00256-200 nM, RLU
Experimental: as §1

recombinant human EpCAM = molecular target: T2, recombinant human EpCAM; assay: ELISA
[4] = molecular target: T3, recombinant human IGFBP-1; assay: ELISA
[5] = molecular target: T1, recombinant human TROP2 extracellular …; assay: competitive ELISA on coated recombinant human TROP2, competitor 1428.6 pM His-tagged KD006, anti-His-HRP secondary Ab
Experimental: The epitope characterization was assessed by competitive ELISA (FIG. 8 and FIG. 9). Microplates were coated with human recombinant TROP2 at 4° C. overnight. After washing, plates were blocked with blocking buffer (PBS+2% BSA), for 1 hour at room temperature. Meanwhile, the dilution for anti-TROP2 VHH sdAbs was prepared with blocking buffer making two different dilutions depending on the tag. For sdAbs with His tag, the antibody was diluted to 28571.4 pM. For sdAbs without tag, antibodies were serially diluted from 2857142.9 pM to 0.29 pM (8 dilutions, 10×). […] After washing two times, the mixed antibody contents were added into the wells and the plates were incubated for 2 hours at room temperature. The HRP-conjugated anti-6× His was diluted to 1:5000 and added to the wells after washing three times. Any unbound conjugate was removed by washing after 1 hour incubation at room temperature, and the colorimetric reaction was performed by adding the same volume of Supersignal ELISA Pico Luminol/Enhancer and SuperSignal ELISA Pico Stable Peroxide Solution and detected on SpectraMax i3x Microplate Reader. Positive and negative controls were included in each plate.

HEK-TROP2 Δ27-44 = molecular target: T4, HEK-TROP2 Δ27-44; assay: flow cytometry, 100 nM antibody, transiently transfected HEK cells, APC anti-human Fc
Experimental: (§2) To determine the effect of TROP2 truncations on the binding ability of anti-TROP2 sdAbs, the HEK parental cells were transiently transfected with human TROP2 mutants by lipofectamine. 24 hours after transfection, cells were collected and stained with anti-TROP2 antibodies (FIG. 13A and FIG. 13B). In brief, 1×10⁵ cells were incubated with an Fc receptor blocking antibody (1/100 dilution) for 10 minutes at room temperature. Anti-TROP2 antibodies were diluted in FACS staining buffer to 100 nM and added and incubated with cells for 30 minutes on ice. After washing three times with FACS staining buffer, APC-conjugated secondary antibodies recognizing the human Fc region (Biolegend, Cat #410712) were mixed with cells. After staining for 30 minutes, cells were washed three times, followed by resuspension into 100 μL of 7-Amino-Actinomycin D (7-AAD) solution (BD Biosciences, Cat #559925).

HEK-TROP2 Δ27-36 = molecular target: T5, HEK-TROP2 Δ27-36; assay: as above
Experimental: as §2

[6] = molecular target: T6, TROP2 delta 27-56 on HEK cells; assay: as above
Experimental: as §2

EC50 [1] [nM] | EC50% to KD005 [1] | EC50 relative to KD005 [2] | Binder | further results
0.08 | 1 ratio to KD005 | 0.9 ratio to KD005 | KD046 (antibody, V domains shown, KD005 humanized variant) VH: QVQLLESGGGLVQPGGSLRLSCAASGFTFSGSDMSWVRQAPGKGPEWVSYITSGGTTYYADTVKGRFTISRDNSKNTLYLQMNSLRAEDTAVYYCAKSRLTDSHYVEDAWGQGTLVTVSS | 
0.1 | 1.25 ratio to KD005 | 1.12 ratio to KD005 | KD050 (antibody, V domains shown, KD005 humanized variant) VH: QVQLQESGGGLVQPGGSLRLSCAASGFTFSGSDMSWVRQAPGKGPEWVSYITSGGTTYYPDTVKGRFTISRDNSKNTLYLQMNSLKPDDTAVYRCAKSRLTDSHYVEDAWGQGTQVTVSS | 
0.07 | 0.875 ratio to KD005 | 0.93 ratio to KD005 | KD052 (antibody, V domains shown, KD005 humanized variant) VH: EVQLVESGGGLIQPGGSLRLSCAASGFTFSGSDMSWVRQAPGKGLEWVSVITSGGTTYYADTVKGRFTISRDNSKNTLYLQMNSLRAEDTAVYYCAKSRLTDSHYVEDAWGQGTLVTVSS | 
0.09 | 1.12 ratio to KD005 | 1.21 ratio to KD005 | KD056 (antibody, V domains shown, KD005 humanized variant) VH: QVQLVESGGGLIQPGGSLRLSCAASGFTFSGSDMSWVRQAPGKGLEWVSYITSGGTTYYADTVKGRFTISRDNSKNTLYLQMNSLRAEDTAVYRCAKSRLTDSHYVEDAWGQGTLVTVSS | 
0.09 | 1.12 ratio to KD005 | 1.15 ratio to KD005 | KD057 (antibody, V domains shown, KD005 humanized variant) VH: QVQLQESGGGLIQPGGSLRLSCAASGFTFSGSDMSWVRQAPGKGLEWVSVITSGGTTYYADTVKGRFTISRDNSKNTLYLQMNSLRAEDTAVYRCAKSRLTDSHYVEDAWGQGTLVTVSS | 
0.08 | 1 ratio to KD005 | 1.12 ratio to KD005 | KD055 (antibody, V domains shown, KD005 humanized variant) VH: EVQLQESGGGLIQPGGSLRLSCAASGFTFSGSDMSWVRQAPGKGLEWVSYITSGGTTYYADTVKGRFTISRDNSKNTLYLQMNSLRAEDTAVYRCAKSRLTDSHYVEDAWGQGTLVTVSS | 
 |  |  | KD020 (antibody, V domains shown, KD002 humanized variant) VH: EVQLVESGGGLVQPGGSLRLSCAASGFPFSSADMHWVRQAPGKGLVWVSRINADGSKTSYADTVKGRFTISRDNAKNTLYLQMNSLRAEDTAVYYCARAKLTDTHYVEDYWGQGTLVTVSS | binding result [3]: binds
 |  |  | KD006 (antibody, human IgG1, V domains shown, also called anti-TROP2 sdAb KD006) VH: QVQLQESGGGLVQAGNSLRLSCVASVRTFSTKAMGWFRQAPGKEREFTAAISESGSTYYADSVKDRFTISRDNVKNTVYLQMNSLKPEDTAVYYCGVKWYSGSFDDTRSYDYWGQGTQVTVSS | binding result (recombinant human EpCAM): no binding; binding result [4]: no binding; IC50 (read off the curve) [5]: ~4 nM; binding result (HEK-TROP2 Δ27-44): binds; binding result (HEK-TROP2 Δ27-36): binds; binding result [6]: binds
